The nature of this data set: soluble on expression in E. coli; label from the status in PepcDB or PDB records.
Consider “MGSSHHHHHHSSGLVPRGSHMETADLKSLAKRIYEAYLKNFNMNKVKARVILSGKASNNPPFVIHDMETLCMAEKTLVAKLVANGIQNKEAEVRIFHCCQCTSVETVTELTEFAKAIPGFANLDLNDQVTLLKYGVYEAIFAMLSSVMNKDGMLVAYGNGFITREFLKSLRKPFCDIMEPKFDFAMKFNALELDDSDISLFVAAIICCGDRPGLLNVGHIEKMQEGIVHVLRLHLQSNHPDDIFLFPKLLQKMADLRQLVTEHAQLVQIIKKTESDAALHPLLQEIYRDMY”, for which the “soluble on expression in E. coli” value was “soluble”.
Turning to “MPPQKSKALWYAQLELGFRFDGQRTIMNHRKHHGPVRVQKMLWPEKTGVCHAIIVHPPAGIAGGDHLTFQVSTERKAHAVVTTPGAGKWYKTNGKQAFQHIYLNIANDSTLEWLPQETMLFDAAYAQSETIIHLDQTASFMGWDMLVLGRQARLETFEQGCYANRFKLYRNHKLLVADTLRFKGKDRWLSSCLGMNGHAVMGSFWAVAPEKYRATLYLEQHIELIRELMMRMDVPVTLTLLDDVVCARFLGDDVRACHDAFAAIRARLRRYWFDLDEEFPRIWRTLEHHHHHH”, the “soluble on expression in E. coli” value was “not soluble”.
“MSLKDMSYQAVMGRNNEIMKNAIGLDYSSFEQEGIGFDYEKMMSETGYTLQDIEAIQSQYAVGNTPLIELKNLTKLARKCAKEGKGARIFVKDEAMNASGSFKARRAATAVYHAKQMGYKGVIAATSGNYGAAVASQAAMQGLKCIIVQECYDSNGVGQPEIIEKARKCEAYGAEVVQLTVGPELFYTFLVLLEETGYFNASLYSPFGIAGVETLGYELAIQFREKYKKDPDIVVCTNAGGGNLTGTARGLIKAGSINTKVVGASVDLKGLHMASDNQFNKKSFTTGHTGFGIPYCTWPDRSDVPRSAARPLRYMDRYVLVKQGEVFYTTELLAQLEGIERGPAGNTSLAAAFSLAQELDEDKAIVVQETEYTGAGKHICPQLTFARENGIDIKFGNPREEIAGVNLILPERPELLKCVDIDMNKIRNSFIKNCISNNHIDNIDKLSNRDIEFLMEEVKSSRDFVVDVLNNLEGHHHHHH”: the “soluble on expression in E. coli” value was “not soluble”.
The entry for “MSETKNDIAWERIFKKYRILEKIKKNGAFEITSGQINEFREARLMTKFDHRKNLPKIFEENNFSILPITRGSYLIAQFKAYHRLEEKETEIIKIPFPTYIESIDYENITSEAAALNCAYVSGILADFIEDEEMVPTVTGRMSSDAFCFYINTYSGSKFKVNVTNAQIEIDGGYEGLGTFSLIEAKNSLSDDFIIRQIYYPYRLWHDKINKKVKPIFMTYSNGIFTFYEYEFQDPEDYNSLTLVKQKKYSIEETEIGLDDIIEIYKRTKIINEPEVPFPQADSFERIINLCELLNESELTRDEITTNYDFDSRQTNYYTDAARYLGLVHKRKEGREVIFSLTEEGEKLFKLKYKPRQLKFVELILSHKVFREVFELCLKNGKMPDKHEVVKIMRYSNLYKIESEKTFYRRAQTIMSWIKWILELTRL” is “not soluble”; for “MSLFFDKVIRLNIGGKRFDTHKSTLMKFDGYFKKFLQTPGSSLVDPIFVDRSPTYFDIVLNFMRKGRADLPETLKDLKMLLGEAEYYELTELCDDCKREISRLDIGIESEPFYEIIPEPSVVARNNNNTIPNNVVEVGS” it is “soluble”.
The entry for “MYYGFDIGGTKIALGVFDSTRRLQWEKRVPTPHTSYSAFLDAVCELVEEADQRFGVKGSVGIGIPGMPETEDGTLYAANVPAASGKPLRADLSARLDRDVRLDNDANCFALSEAWDDEFTQYPLVMGLILGTGVGGGLVLNGKPITGQSYITGEFGHMRLPVDALTLMGFDFPLRRCGCGQMGCIENYLSGRGFAWLYQHYYDQSLQAPEIIALWEQGDEQAHAHVERYLDLLAVCLGNILTIVDPDLLVIGGGLSNFTAITTQLAERLPRHLLPVARAPRIERARHGDAGGMRGAAFLHLTD” is “soluble”; for “MGSDKIHHHHHHMITVVGGTFSKLHKGHKALLEKAIETGNEIVIGLTSDEYVKRNKVYPAIPYKERYRNLYNYMVKKTNKFRIRPIDDRNGNAPYERDYEIIVVSPETYQRSLKINEIRIQNGLPPLKIIRVPYVLAEDLFPISSTRIINGEIDGNGRRLKPVKVAIATNNSAKLKATNDFFHKLMKNFDVIQNTDYKLETQQPFGEVTMNMATKRAMQSLGDNDYAIGIESGIVYERFSRKYFDFHYCVVIDRFGNVTRGSSSGFEVPDRIIDLIKRDMSFSQAYGKVIDTNGIDDSTGIVGKISNGRVRRYDLIMECIRNAFIPRFDPDFYDTTYTPP” it is “not soluble”.
The entry for “MRKWRIEDSEELYNITGWGTSYFSINDAGHVVVTPRRDGVTVDLKELVDELQLRDVASPMLLRFPDILDNRIEKMSSCFKQAAEEYGYKAENFIIYPIKVNQMRPVVEEIISHGKKFNLGLEAGSKPELHAVIAVNTDSDSLIVCNGYKDESYIELALLAQKMGKRIFLVVEKMNELKLIAKMAKQLNVQPNIGIRIKLASSGSGKWEESGGDASKFGLTSSELLEALDFMESKGLKDCLKLIHFHIGSQVTKIRRIKTALREASQFYVQLHSMGFNVEFVDIGGGLGVDYDGTRSSNSEGSVNYSIQEYVNDSISTLVDVSDKNGIPHPNIITESGRALTAHHSVLIFEVLETATLPEWDDEEEIAPDAHELVQELYSIWDSLNQNKMLEAWHDAQQIREEALDLFSHGIVDLKTRAQIERLYWSITREINQIAGGLKHAPDEFRGLSKLLADKYFCNFSLFQSLPDSWAIDQIFPIMPIQRLDEKPERSATLQDITCDSDGKIANFISTRNVAHYLPVHSLKKTEPYYLAVFLVGAYQEILGDMHNLFGDTNAVHVSVNEKGYNIEQIIDGETVAEVLDYVQYNPKKLVRTLETWVTKSVKEGKISLEEGKEFLSNYRSGLYGYTYLE” is “not soluble”.
Turning to “MLSKTNQNIFTVSRLNAEVRLLLENEMGIVWLVGEISNFSAPVSGHWYLTLKDSRAQVKCAMFRGNNRRVTFKPANGNQVLVKARLSLYEPRGDYQLIIESMQPEGDGRLQQEFEELKMKLAAEGLFAQTNKLPLPEHPKRVGIITSKTGAALYDILDVLKRRDPSLPVVIYPTMVQGDDAAIQIAQAIGRANSRNECDVLIVGRGGGSLEDLWCFNNEILARTIAASQIPIISAVGHEVDMTIADFVADVRAPTPSAAAELVSRDNSHKDQSLVAKQHKLASAMRYYLSQQKQQSAQLLHRLERQHPSYQLQRQSQQLDELDMRLRRAMQRFIDTRQQAVERKHHRLQLNSPVKHLAQQKSRLERVEHKLLDTMDRKLLTMRHQLAIAAEKLDTVSPLATLKRGYSITQTEQGKVVTSADDVKTGDLLVTRLANGEIHSTVS”, the “soluble on expression in E. coli” value is “not soluble”.
Under “MIMQKRLLNRNSSVVKSRNCLARHQHESSISKLHVSLRLHRCLRPIVRFDFLHNAGSKVCSQNSCPSPQLHVGTMALFHTVFILWPHFCGILWTVHEKLYNYLLSIEVY” stands “soluble”; under “MNLRSVFTVEQQRILQRYYENGMTNQSKNCFQLILQCAQETKLDFSVVRTWVGNKRRKMSSKNSESGTATTGTSLSAPDITVRNVVNIARPSSQQSSWTSANNDVIVTGIYSPASSSSRQGTNKHTDTQITEAHKIPIQKTATKNDTEFQLHIPVQRQVAHCKNASLLLGEKTIILSRQTSVLNAGNSVFNHAKKNYGNSSVQASEMTVPQKPSVCHRPCKIEPVGIQRSYKPEHTGPALHNLCGQKPTIRDPYCRTQNLEIREVFSLAVSDYPQRILGGNAPQKPSSAEGNCLSIAMETGDAEDEYAREEELASMRAQIPSYSRFYESGSSLRAENQSTTLPGPGRNMPNSQMVNIRDMSDNVLYQNRNYHLTPRTSLHTASSTMYSNTNPLRSNFSPHFASSNQLRLSQNQNNYQISGNLTVPWITGCSRKRALQDRTQFSDRDLATLKKYWDNGMTSLGSVCREKIEAVATELNVDCEIVRTWIGNRRRKYRLMGIEVPPPRGGPADFSEQPESGSLSALTPGEEAGPEVGEDNDRNDEVSICLSEGSSQEEPNEVVPNDARAHKEEDHHAVTTDNVKIEIIDDEESDMISNSEVEQVNSFLDYKNEEVKFIENELEIQKQKYFKLQTFVRSLILAMKADDKEQQQALLSDLPPELEEMDFNHASLEPDDTSFSVSSLSEKNVSESL”, “soluble”; under “MSLGQKGHKDSLYPCGGTPESSLHEALDQCMTALDLFLTNQFSEALSYLKPRTKESMYHSLTYATILEMQAMMTFDPQDILLAGNMMKEAQMLCQRHRRKSSVTDSFSSLVNRPTLGQFTEEEIHAEVCYAECLLQRAALTFLQDENMVSFIKGGIKVRNSYQTYKELDSLVQSSQYCKGENHPHFEGGVKLGVGAFNLTLSMLPTRILRLLEFVGFSGNKDYGLLQLEEGASGHSFRSVLCVMLLLCYHTFLTFVLGTGNVNIEEAEKLLKPYLNRYPKGAIFLFFAGRIEVIKGNIDAAIRRFEECCEAQQHWKQFHHMCYWELMWCFTYKGQWKMSYFYADLLSKENCWSKATYIYMKAAYLSMFGKEDHKPFGDDEVELFRAVPGLKLKIAGKSLPTEKFAIRKSRRYFSSNPISLPVPALEMMYIWNGYAVIGKQPKLTDGILEIITKAEEMLEKGPENEYSVDDECLVKLLKGLCLKYLGRVQEAEENFRSISANEKKIKYDHYLIPNALLELALLLMEQDRNEEAIKLLESAKQNYKNYSMESRTHFRIQAATLQAKSSLENSSRSMVSSVSEGHHHHHH”, “soluble”.
Under “MSLDAITVDLNYDKNNVAVITPVWSQEWSVANVLGGWVCRSNRNENEGACEETHLVWWYAFGAYSKIRLRFREQISHAEITLILLGSVRDACYTGVINMNAAACQWGRSLKLRIPSEELAKIPTSGTWKATLVLDYLQWGGDDPLGTSTTDITLNVTDHFAENAAIYFPQFGTATPRVDLNLHRMNASQMSGRANLDMCLYDGGVKARSLQMKIEGSNKSGTGFQVIKSDSADTIDYAVSMNYGGRSIPVTRGVEFSLDNVDKAATRPVVLPGQRQAVRCVPVPLTLTTQPFNIREKRSGEYQGTLTVTMLMGTQTPEGHHHHHH” stands “not soluble”; under “MSLTERFVLRNVKRVNGEEVDIVIENNKIAQVTKAGAGEGGKVLDYSGTYVSSGWIDLHVHAFPEFDPYGDEVDEIGVKQGVTTIVDAGSCGADRIADLVKSREQAKTNLFAFLNISRIGLKRIDELSNMEWIDKEKVIEAVEKYKDVIVGLKARMSKSVVCDSGIEPLHIARDLSRETSLPIMVHIGSAPPRIEEVVPLLEKDDVITHYLNGKENNLFDEEGKPLPVLLDAVNRGVHLDVGHGNASFSFKVAEAAKRHGIAFNTISTDIYRKNRMHGPVYSMAHVLSKFLYLGYSLEEVIDAVTKHAAEWLKKPELGRIQEGDIANLTLFTVKDEKITLIDSEGDQRIAERRIDTKGVVINGSFIECEGHHHHHH”, “soluble”; under “MGSDKIHHHHHHMPHHQPCPPASSLSAGPRGGVIMLILKNVTAVQLHPAKVQEGVDIAIENDVIVAIGDALTQRYPDASFKEMHGRIVMPGIVCSHNHFYSGLSRGIMANIAPCPDFISTLKNLWWRLDRALDEESLYYSGLICSLEAIKSGCTSVIDHHASPAYIGGSLSTLRDAFLKVGLRAMTCFETTDRNNGIKELQEGVEENIRFARLIDEAKKATSEPYLVEAHIGAHAPFTVPDAGLEMLREAVKATGRGLHIHAAEDLYDVSYSHHWYGKDLLARLAQFDLIDSKTLVAHGLYLSKDDITLLNQRDAFLVHNARSNMNNHVGYNHHLSDIRNLALGTDGIGSDMFEEMKFAFFKHRDAGGPLWPDSFAKALTNGNELMSRNFGAKFGLLEAGYKADLTICDYNSPTPLLADNIAGHIAFGMGSGSVHSVMVNGVMVYEDRQFNFDCDSIYAQARKAAASMWRRMDALA”, “not soluble”.
The entry for “MKQVSRSALVSFSAEQMFNLVNDVAKYPEFLPGCSGSRIIESSGNGMVASVDVAKAGISKTFTTSNELIPGQAIMMNLVDGPFKTLRGGWIFTALDEQACKVELKLEFEFSSKMIEMAFGKIFNELTSNMVNAFTKRAKQVYECYEYLEHHHHHH” is “not soluble”.

Source of the values: the DeepSol protein solubility set.
